# In US20180346592A1 (MOGAM INSTITUTE FOR BIOMEDICAL RESEARCH, published 2018):
# Assays:
# [1] = biological target: T1, GPC3 on the surface of hepatic cancer cell lines (SK-Hep1-GPC3 transfectant, HepG2, Huh7, Hep3B, SNU398) (human, UniProt P51654 25-554); assay: FACS, SK-Hep1-GPC3 cells, 1 ug antibody; lower right panel
# T1 construct: Species is not restated for the cells (hepatic cancer cell lines, or SK-Hep1 transfected with pCMV/GPC3); also called glypican 3
# Experimental: (§1) After detaching SK-Hep1-GPC3 cells by adding a TrypLE Express solution thereto, the detached SK-Hep1-GPC3 cells were put into a 50 mL tube and centrifuged at room temperature and 2000 rpm for 3 minutes to remove a culture medium, followed by washing with PBS once. The resultant was suspended using a FACS buffer, transferred to a round bottom tube, and centrifuged at room temperature and 2000 rpm for 3 minutes. A supernatant was removed, and the resultant was suitably dissolved using the FACS buffer so as to have a concentration of 4×10⁵ ea/mL. Then, a candidate antibody (1 μg) was added thereto at 4° C., and in an […] control group, a human IgG (1m, Sigma) was added instead of the candidate antibody. After 1 hour, the resultant was washed with the FACS buffer two times, a goat anti-human IgG antibody and FITC conjugated were added thereto at an amount of 1 μL per sample and bound thereto at 4° C. for 30 minutes. After collecting cells by centrifugation at 2000 rpm for 3 minutes, the cells were re-suspended by adding a fixation buffer (500 μL), and measured using a FACS calibur (FIG. 5).
# [2] = biological target: T1, GPC3 on the surface of hepatic cancer …; assay: FACS, HepG2 cells, 1 ug antibody; lower right panel
# [3] = biological target: T1, GPC3 on the surface of hepatic cancer …; assay: FACS, SK-Hep1-GPC3 #9 cells, 1 ug antibody; upper right panel
# Experimental: as §1
# [4] = biological target: T1, GPC3 on the surface of hepatic cancer …; assay: FACS, HepG2 cells, 1 ug antibody; upper right panel (Synthetic library)
Binder,"Mean, FL2-H [1]","Mean, FL2-H [2]","Mean, FL2-H [3]","Mean, FL2-H [4]"
"clone GS009 (scFv, V domains shown, scFv library clone tested as culture supernatant) VH: EVQLLESGGGLVQPGGSLRLSCAASGFTFSNYSMSWVRLAPGKGLEWVSVISPSGGNTYYADSVKGRFTISRDNSKNTLYLQMNSLRAEHTAVYYCARYRVKQMLNQRSYSNAMDVWGQGTLVTVSS VL: QSVLTQPPSASGTPGQRVTISCTGSSSNIGNNYVSWYQQLPGTAPKLLIYDDSQRPSGVPDRFSGSKSGTSASLAISGLRSEDEADYYCGSWDASLSGYVFGGGTKLTVLG",–,–,12.3,8.12
"clone GS007 (scFv, V domains shown, scFv library clone tested as culture supernatant) VH: EVQLLESGGGLVQPGGSLRLSCAASGFTFSNYSMSWVRQAPGKGLEWVSVISHDGRSKYYADSVKGRFAISRDNSKNTLYLQMNSLRAEDTAVYYCAKFRVWKRTNAHSYANAMDVWGQGTLVTVSS VL: QSVLTQPPSASGTPGQRATISCTGSSSNIGSNSVSWYQQLPGTAPKLLIYANSNRPSGVPDRFSGSKSGTSASLAISGLRSEDEADYYCGTWDASLSAYVFGGGTKLTVLG",–,–,3.94,11.3
"clone GS008 (scFv, V domains shown, scFv library clone tested as culture supernatant) VH: EVQLLESGGGLVQPGGSLRLSCAASGFTFSNYAMSWVRQAPGKGLEWVSVISPDNGSTYYADSVKGRFTISRDNSKNTLYLQMNSLRAEDTAVYYCARARVHCRRDQCYSYGMDVWGQGTLVTVSS VL: QSVLTQPPSASGTPGQRVTISCTGSSSNIGSNNVTWYQQLPGTAPKLLIYANSQRPSGVPDRFSGSKSGTSASLAISGLRSEDEADYYCGAWDSSLNGYVFGGGTKLTVLG",–,–,4.89,8.85
"clone GS017 (scFv, V domains shown, scFv library clone tested as culture supernatant) VH: EVQLLESGGGLVQPGGSLRLSCAASGFTFSGYAMSWVRQAPGKGLEWVSGISPGDGSTYYADSVKGRFTISRDNSKNTLYLQMNSLRAEDTAVYYCARVARMCQGWRCSYADGMDVWGQGTLVTVSS VL: QSVLTQPPSASGTPGQRVTISCTGSSSNIGNNSVYWYQQLPGTAPKLLIYSDSHRPSGVPDRFSGSKSGTSASLAISGLRSEDEADYYCGTWDSSLSGYVFGGGTKLTVLG",–,–,27.5,12.2
"clone GS001 (scFv, V domains shown, scFv library clone tested as culture supernatant) VH: EVQLLESGGGLVQPGGSLRLSCAASGFTFSSYSMSWVRQAPGKGLEWVSGISPSGGNKYYADSVKGRFTISRDNSKNTLYLQMNSLRAEDTAVYYCARALLGCKSAYCYYAMDVWGQGTLVTVSS VL: QSVLTQPPSASGTPGQRVTISCTGSSSNIGSNAVNWYQQLPGTAPKLLIYADSKRPSGVPDRFSGSKSGTSASLAISGLRSEDEADYYCGSWDSSLSGYVFGGGTKLTVLG",–,–,5.32,8.76
"clone GS005 (scFv, V domains shown, scFv library clone tested as culture supernatant) VH: EVQLLESGGGLVQPGGSLRLSCAASGFTFSNYAMSWVRQAPGKGLEWVSVISPDSSSKYYADSVKGRFTISRDNSKNTLYLQMNSLRAEDTAVYYCARAAVRRYGPSPYYYYAMDVWGQGTLVTVSS VL: QSVLTQPPSASGTPGQRVTISCTGSSSNIGNNYVTWYQQLPGTAPKLLIYADSHRPSGVPDRFSGSKSGTSASLAISGLRSEDEADYYCATWDYSLSGYVFGGGTKLTVLG",–,–,4.98,11
"clone GS011 (scFv, V domains shown, scFv library clone tested as culture supernatant) VH: EVQLLESGGGLVQPGGSLRLSCAASGFTFSNYAMSWVRQAPGKGLEWVSGISPGGSSIYYADSVKGRFTISRDNSKNTLYLQMNSLRAEDTAVYYCARYAVYFLRSHGSYDYGMDVWGQGTLVTVSS VL: not shown",–,–,22.9,6.5
"clone GS013 (scFv, V domains shown, scFv library clone tested as culture supernatant) VH: EVQLLESGGGLVQPGGSLRLSCAASGFTFSNYAMSWVRQAPGKGLEWVSSISSGGGSTYYADSVKGRFTISRDNSKNTLYLQMNSLRAEDTAVYYCARKKSQFDYWGQGTLVTVSS VL: not shown",–,–,7.43,6.07

# Continued, values first:
"Mean, FL2-H [1]","Mean, FL2-H [2]","Mean, FL2-H [3]","Mean, FL2-H [4]",Binder
40.1,13.2,–,–,"clone GX099 (scFv, V domains shown, scFv library clone tested as culture supernatant) VH: EVQLVESGAEVKKPGASVKVSCKASGYTFTSYYMHWVRQAPGQGLEWMGIINPSGGSTSYAQKFQGRVTMTRDTSTSTVYMELSSLRSEDTAVYYCARYSSSPAKIDYWGQGTLVTVSS VL: QSVLTQPPSVSAAPGEKVIISCSGSSSNIGKYYVSWYQQLPGTAPKLLIYDNNKRPSGIPDRFSGSKSGTSATLGISGLQTGDEADYYCGTWDSSLNLVFGTGTKVTVLG"
37.8,9.81,–,–,"clone GX225 (scFv, V domains shown, scFv library clone tested as culture supernatant) VH: QVQLVQSGAEVKKPGASVKVSCKASGYTFTSYYMHWVRQAPGQGLEWMGIINPSGGSTSYAQKFQGRVTMTRDTSTSTVYMELSSLRSEDTAVYYCARESGPSGGMDVWGQGTTVTVSS VL: SYELTQPPSVSVSPGQTARITCSGDALPKQYAYWYQQKPGQAPVLVIYKDSERPSGIPERFSGSSSGTTVTLTISGVQAEDEADYYCSSYTSSSTRVVFGGGTKLTVLG"
14.9,5.08,–,–,"clone GX206 (scFv, V domains shown, scFv library clone tested as culture supernatant) VH: QLQLQESGPGLVKPSETLSLTCTVSGGSISSSSYYWGWIRQPPGKGLEWIGSIYYSGSTYYNPSLKSRVTISVDTSKNQFSLKLSSVTAADTAVYYCARLGDYGGNGYYFDYWGQGTLVTVSS VL: QSVLTQPPSVSAASGQKVTVSCSGSSSNIGKNGVSWHQQLPGTAPKLLIYENNRRPSEIPDRFSGSKSGTSATLAITGLQTGDEADYYCGTWDSSLNAGVFGTGTKVTVLG"
13.7,6.12,–,–,"clone GX253 (scFv, V domains shown, scFv library clone tested as culture supernatant) VH: EVQLVESGGGLVKPGGSLRLSCAASGFTFSDYYMSWIRQAPGKGLEWVSYISSSGTTIYYADSVKGRFTISRDNAKKSLYLQMNSLRAEDTAVYYCARVRDSSGFWGRGTLVTVSS VL: QSVLTQPPSVSAAPGQKVTISCSGSSSNIGNNYVSWYQQLPGTAPKLLIYDNNKRPSGIPDRFSGSKSGTSATLGITGLQTGDEADYYCGTWDSSLSAWVVGGGTKLTVLG"
13.3,5.71,–,–,"clone GX248 (scFv, V domains shown, scFv library clone tested as culture supernatant) VH: QMQLVQSGAEVKKPGASVKVSCKASGGTFSSYAISWVRQAPGQGLEWMGGIIPIFGTANYAQKFQGRVTITADESTSTAYMELSSLRSEDTAVYYCARVRGTGPRGGTFDYWGQGTLVTVSS VL: QSVLTQPPSVSAAPGQKVTISCSGSSSNIGNNYVSWYQQLPGTAPKLLIYDNNKRPSGIPDRFSGSKSGTSATLGITGLQTGDEADYYCGTWDSSLSAWVFGGGTKLTVLG"
5.95,–,–,–,"clone GX118 (scFv, V domains shown, scFv library clone tested as culture supernatant) VH: QLQLQESGPGLVKPSETLSLTCTVSGGSISSSSYYWGWIRQPPGKGLEWIGSIYYSGSTYYNPSLKSRVTISVDTSKNQFSLKLSSVTAADTAVYYCARLRSFADNYVWGSYASYYFDYWGRGTLVTVSS VL: QSVVTQPPSVSAAPGQRVTISCSGSSSNIGNNFVSWHQQLPGTAPKLLIYDNNKRPSGIPDRFSGSKSGTSATLGITGLQTGDEADYYCGTWDNSLGTGVFGGGTKLTVLG"
13.3,5.62,–,–,"clone GX119 (scFv, V domains shown, scFv library clone tested as culture supernatant) VH: EVQLVESGGGVVQPGRSLRLSCAASGFTFSSYGMHWVRQAPGKGLEWVAVIWYDGSNKYYADSVKGRFTISRDNSKNTLYLQMNSLRAEDTAVYYCARDRSWNYYGMDVWGQGTTVTVSS VL: not shown"
10.2,3.49,–,–,"clone GX090 (scFv, V domains shown, scFv library clone tested as culture supernatant) VH: QVQLVQSGAEVKKPGASVKVSCKASGYTFTSYGISWVRQAPGQGLEWMGWISAYNGNTNYAQKLQGRVTMTTDTSTSTAYMELRSLRSDDTAVYYCARGSSFSGFDPWGQGTLVTVSS VL: QSVLTQPPSLSAAPGQKVTISCSGSSSNIGKNHVSWYQQFPGTAPKFLIYDNHRRPSGIPDRFSGSKSGTSATLDITGLQTGDEATYYCGTWDSSLSAVVFGGGTKLTVLG"
62.9,12.6,–,–,"clone GX234 (scFv, V domains shown, scFv library clone tested as culture supernatant) VH: QVQLVQSGAEVKKPGASVKVSCKASGYTFTSYGISWVRQAPGQGLEWMGWISAYNGNTNYAQKLQGRVTMTTDTSTSTAYMELRSLRSDDTAVYYCARVGLGDFWSGDYYYYYYGMDVWGQGTTVTVSS VL: SSELTQDPAVSVALGQTVRITCQGDSLRSSYASWYHQKPGQAPVLVMYGKNNRPSGIPDRFSGSSSGNTASLTITGAQAEDEADYYCHSRDSTGSHPNWVFGGGTKLTVLG"
9.91,5,–,–,"clone GX207 (scFv, V domains shown, scFv library clone tested as culture supernatant) VH: EVQLVQSGAEVKKPGASVKVSCKASGYTFTSYGISWVRQAPGQGLEWMGWISAYNGNTNYAQKLQGRVTMTTDTSTSTAYMELRSLRSDDTAVYYCAREGIAAAGYYYGMDVWGQGTTVTVSS VL: QSALTQPPSVSGSPGQSVTISCTGTSSDVGGYNRVSWYQQPPGTAPKLMIYEVSNRPSGVPDRFSGSKSGNTASLTISGLQAEDEADYYCSSYTSSTTYVFGTGTKVTVLG"
